In the supplement of paper PMC9112550, “Optimization of the antimicrobial peptide Bac7 by deep mutational scanning” (BMC Biology, 2022):

Test system: Escherichia coli TOP10
Assay: shrunken log2 fold change of peptide-encoding DNA abundance (4.5 h post-induction vs induction); higher = less antimicrobial activity (less host growth inhibition)
Settings: time post-induction: 4.5 h; library: site-saturation at positions 5, 18, 19, 20
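Note: peptides expressed intracellularly from a pBAD plasmid library in pooled LB shake-flask culture, induced with 0.3% L-arabinose, DNA abundance read by NGS, three biological replicates, DESeq2 with apeglm shrinkage.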

Row | Sequence | shrunken log2 fold change
1 | RRIRQRPPRLPRPRPRPPSSPRP | 0.0251
2 | RRIRSRPPRLPRPRPRPYATPRP | -0.192
3 | RRIRGRPPRLPRPRPRPWWYPRP | -0.119
4 | RRIRMRPPRLPRPRPRPSHCPRP | 0.0171
5 | RRIRMRPPRLPRPRPRPWVRPRP | 0.0882
6 | RRIRTRPPRLPRPRPRPPCPPRP | 0.15
7 | RRIRFRPPRLPRPRPRPMRIPRP | 0.068
8 | RRIRQRPPRLPRPRPRPYASPRP | -0.00547
9 | RRIRWRPPRLPRPRPRPYFVPRP | -0.309
10 | RRIRQRPPRLPRPRPRPIIVPRP | -0.0856
11 | RRIRSRPPRLPRPRPRPLYIPRP | -0.276
12 | RRIRSRPPRLPRPRPRPHGTPRP | -0.161
13 | RRIRTRPPRLPRPRPRPDNNPRP | -0.48
14 | RRIRGRPPRLPRPRPRPVVEPRP | 0.937
15 | RRIRCRPPRLPRPRPRPCQHPRP | -0.161
16 | RRIRFRPPRLPRPRPRPINAPRP | 0.00976
17 | RRIRSRPPRLPRPRPRPYVQPRP | -0.024
18 | RRIRKRPPRLPRPRPRPDKSPRP | 0.0207
19 | RRIRPRPPRLPRPRPRPYEQPRP | -0.116
20 | RRIRLRPPRLPRPRPRPMWCPRP | 0.214
21 | RRIRARPPRLPRPRPRPFVPPRP | -0.0963
22 | RRIRTRPPRLPRPRPRPCAMPRP | -0.111
23 | RRIRARPPRLPRPRPRPYRMPRP | 0.0568
24 | RRIRFRPPRLPRPRPRPMTSPRP | -0.552
25 | RRIRWRPPRLPRPRPRPWMVPRP | 0.0468

Row | Sequence | shrunken log2 fold change
26 | RRIRYRPPRLPRPRPRPLMTPRP | -0.181
27 | RRIRKRPPRLPRPRPRPQWQPRP | 0.0827
28 | RRIRMRPPRLPRPRPRPELMPRP | 3.86
29 | RRIRLRPPRLPRPRPRPNHMPRP | -0.326
30 | RRIRIRPPRLPRPRPRPAWSPRP | -0.191
31 | RRIRHRPPRLPRPRPRPACHPRP | -0.2
32 | RRIRWRPPRLPRPRPRPHHMPRP | -0.592
33 | RRIRRRPPRLPRPRPRPHKMPRP | -0.167
34 | RRIRFRPPRLPRPRPRPVHFPRP | -0.263
35 | RRIRTRPPRLPRPRPRPIMFPRP | -0.937
36 | RRIRARPPRLPRPRPRPVYYPRP | -0.518
37 | RRIRCRPPRLPRPRPRPGVMPRP | 0.0691
38 | RRIRWRPPRLPRPRPRPEGVPRP | 0.601
39 | RRIRGRPPRLPRPRPRPWWTPRP | -0.124
40 | RRIRRRPPRLPRPRPRPEKGPRP | -0.0235
41 | RRIRPRPPRLPRPRPRPFFQPRP | 0.0612
42 | RRIRQRPPRLPRPRPRPLQQPRP | -0.123
43 | RRIRQRPPRLPRPRPRPCKGPRP | 0.00408
44 | RRIRGRPPRLPRPRPRPYHDPRP | -0.0405
45 | RRIRRRPPRLPRPRPRPLESPRP | 0.0173
46 | RRIRGRPPRLPRPRPRPVCMPRP | 0.406
47 | RRIRHRPPRLPRPRPRPEKAPRP | -0.0238
48 | RRIRHRPPRLPRPRPRPIQMPRP | -0.00723
49 | RRIRGRPPRLPRPRPRPWLVPRP | 0.422
50 | RRIRERPPRLPRPRPRPSEMPRP | -0.16

Row | Sequence | shrunken log2 fold change
51 | RRIRFRPPRLPRPRPRPCRTPRP | 0.048
52 | RRIRERPPRLPRPRPRPKPCPRP | 0.133
53 | RRIRHRPPRLPRPRPRPKHAPRP | 0.126
54 | RRIRVRPPRLPRPRPRPFCHPRP | -0.264
55 | RRIRNRPPRLPRPRPRPSQQPRP | -0.111
56 | RRIRIRPPRLPRPRPRPERLPRP | 0.0553
57 | RRIRCRPPRLPRPRPRPNVLPRP | -0.464
58 | RRIRERPPRLPRPRPRPPKQPRP | 0.0175
59 | RRIRERPPRLPRPRPRPRQMPRP | -0.000582
60 | RRIRDRPPRLPRPRPRPKMAPRP | 0.38
61 | RRIRQRPPRLPRPRPRPKVFPRP | -0.00192
62 | RRIRPRPPRLPRPRPRPGVNPRP | -0.342
63 | RRIRHRPPRLPRPRPRPVEIPRP | -0.0173
64 | RRIRWRPPRLPRPRPRPHKTPRP | 0.175
65 | RRIRCRPPRLPRPRPRPFSCPRP | 0.0218
66 | RRIRDRPPRLPRPRPRPISCPRP | -0.0129
67 | RRIRSRPPRLPRPRPRPWSDPRP | -0.164
68 | RRIRGRPPRLPRPRPRPAGEPRP | 0.479
69 | RRIRMRPPRLPRPRPRPPFYPRP | -0.182
70 | RRIRTRPPRLPRPRPRPMFEPRP | -0.171
71 | RRIRYRPPRLPRPRPRPQEDPRP | -0.135
72 | RRIRHRPPRLPRPRPRPAEHPRP | -0.144
73 | RRIRARPPRLPRPRPRPTEWPRP | 0.483
74 | RRIRMRPPRLPRPRPRPYQCPRP | -0.118
75 | RRIRFRPPRLPRPRPRPRNQPRP | -0.114
